Measured values published in patent US20160272706A1 (AstraZeneca / MedImmune, published 2016).
Changes are numbered by the printed parent chain. Names may count otherwise. Values belong to the binder of their own block, whether it stands above or below them.

Experiments:
[1] = biological target: T1, Human IL-13 (human, UniProt P35225 35-146); test: biochemical receptor-ligand inhibition assay, purified scFv titrated (second panel); the IL-13 receptor used is not named in Example 1
T1 construct: also called human interleukin 13 (Peprotech); the antigen

[2] = biological target: T1, Human IL-13; test: IC50 of the parent scFv divided by IC50 of the clone, biochemical receptor-ligand inhibition assay, purified scFv (second panel)
[3] = biological target: T1, Human IL-13; test: biochemical receptor-ligand inhibition assay, purified scFv titrated; the IL-13 receptor used is not named in Example 1
[4] = biological target: T1, Human IL-13; test: IC50 of the parent scFv divided by IC50 of the clone, biochemical receptor-ligand inhibition assay, purified scFv
[5] = biological target: T1, Human IL-13; test: BIAcore
[6] = biological target: FLAG-tagged human IL-13 (R130 variant) (human, UniProt P35225 35-146); test: HTRF receptor-ligand competition; FLAG-tagged human IL-13 (312.5 pM) against DyLight650-labelled human IL-13Rα2 (10 nM); geometric mean
[7] = biological target: T1, Human IL-13; test: KinExA at 37° C., IgG fixed at 100 or 4 pM, human IL-13 titrated

B1: BAK1183H4 antibody (antibody, V domains shown)
VH: QVQLVQSGAEVKKPGASVKVSCKASGYTFTNYGLSWVRQAPGQGLEWMGWINYDGGNTQYGQEFQGRVTMTTDTSTSTAYMELRSLRSDDTAVYYCARDSSSSWARWFFDLWGRGTLVTVSS
VL: SYVLTQPPSVSVAPGKTARIPCGGNIIGSKLVHWYQQKPGQAPVLVIYDDGDRPSGIPERFSGSNSGNTATLTISRVEAGDEADYYCQVWDTGSDPVVFGGGTKLTVL
notes: also called 1183H04; BAK1183H04
IC50 [1]: 46 nM | Fld improvement [2]: 1 fold | IC50 [3]: 40.6 nM | Fld improvement [4]: 1 fold | Kd [5]: 0.081 nM

B3: 13NG0074 (antibody, V domains shown)
VH: B1 VH
VL: B1 VL with I26L, S29A, K30R, V46I, I47M, Y48F, G51Q, D95L
notes: IgG in the KinExA assay
IC50 [3]: 10.8 nM | Fld improvement [4]: 3.76 fold | Kd [7]: 0.004 nM

B4: 13NG0073 (antibody, V domains shown)
VH: B1 VH
VL: B1 VL with I26L, S29A, K30R, V46I, Y48M, G51I, D95R
notes: IgG in the KinExA assay; also called IL13NG0073
IC50 [3]: 8.09 nM | Fld improvement [4]: 5.02 fold | Kd [7]: 0.0046 nM

Second part, the binder after the results:

IC50 [6]: 1.34 nM
B2: 1183H4_VH_VL_nonGL IgG1-YTE (antibody, V domains shown)
VH: B1 VH
VL: B1 VL
notes: Non-germlined parent as IgG1 with the YTE mutations (M252Y/S254T/T256E, EU); also called Parent IgG1-YTE; parent clone

IC50 [1]: 6.53 nM | Fld improvement [2]: 7 fold
B5: 13NG0088 (scFv, V domains shown)
VH: B1 VH
VL: B1 VL with I26L, S29A, K30R, Y48M, G51I, D95R
notes: purified scFv from the mini-recombination library; member of group m20; also called ZZ0SEC-C01; copies: 1 + 1
